The supplement of paper PMC9112550, “Optimization of the antimicrobial peptide Bac7 by deep mutational scanning” (BMC Biology, 2022)

Tested on: Escherichia coli TOP10
Assay: shrunken log2 fold change of peptide-encoding DNA abundance (4.5 h post-induction vs induction); higher = less antimicrobial activity (less host growth inhibition)
Conditions: time post-induction: 4.5 h; library: site-saturation at positions 5, 18, 19, 20
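Note: peptides expressed intracellularly from a pBAD plasmid library in pooled LB shake-flask culture, induced with 0.3% L-arabinose, DNA abundance read by NGS, three biological replicates, DESeq2 with apeglm shrinkage.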

Sequence	shrunken log2 fold change
RRIRVRPPRLPRPRPRPAKGPRP	-0.283
RRIRHRPPRLPRPRPRPSRPPRP	0.323
RRIRTRPPRLPRPRPRPGPVPRP	0.141
RRIRARPPRLPRPRPRPWLIPRP	0.111
RRIRTRPPRLPRPRPRPDWYPRP	-0.622
RRIRVRPPRLPRPRPRPGARPRP	0.198
RRIRERPPRLPRPRPRPLCHPRP	-0.0201
RRIRCRPPRLPRPRPRPSRRPRP	-0.181
RRIRPRPPRLPRPRPRPQMRPRP	0.806
RRIRIRPPRLPRPRPRPHCNPRP	-0.784
RRIRARPPRLPRPRPRPGQRPRP	0.107
RRIRFRPPRLPRPRPRPPLVPRP	0.23
RRIRVRPPRLPRPRPRPYNHPRP	-0.343
RRIRARPPRLPRPRPRPPGAPRP	1.11
RRIRYRPPRLPRPRPRPPPYPRP	-0.0871
RRIRPRPPRLPRPRPRPVNEPRP	-0.00503
RRIRIRPPRLPRPRPRPFGDPRP	-0.0112
RRIRIRPPRLPRPRPRPPEHPRP	-0.037
RRIRVRPPRLPRPRPRPRKIPRP	-0.0978
RRIRMRPPRLPRPRPRPLYHPRP	-0.0416
RRIRVRPPRLPRPRPRPHPCPRP	0.106
RRIRQRPPRLPRPRPRPESNPRP	-0.257
RRIRTRPPRLPRPRPRPVEQPRP	0.112
RRIRVRPPRLPRPRPRPECNPRP	-0.195
RRIRERPPRLPRPRPRPTRFPRP	0.169

Sequence	shrunken log2 fold change
RRIRSRPPRLPRPRPRPTDFPRP	-0.541
RRIRYRPPRLPRPRPRPCITPRP	-0.00269
RRIRSRPPRLPRPRPRPRWLPRP	0.297
RRIRNRPPRLPRPRPRPGKDPRP	-0.0565
RRIRLRPPRLPRPRPRPSGMPRP	-0.204
RRIRWRPPRLPRPRPRPQPSPRP	0.287
RRIRWRPPRLPRPRPRPSYEPRP	0.086
RRIRPRPPRLPRPRPRPCQCPRP	-0.0627
RRIRIRPPRLPRPRPRPFPPPRP	-0.353
RRIRCRPPRLPRPRPRPNDWPRP	-0.166
RRIRARPPRLPRPRPRPGVYPRP	0.011
RRIRERPPRLPRPRPRPFEPPRP	-0.195
RRIRPRPPRLPRPRPRPAVDPRP	0.249
RRIRCRPPRLPRPRPRPIEMPRP	-0.0735
RRIRPRPPRLPRPRPRPTYRPRP	-0.236
RRIRDRPPRLPRPRPRPNIFPRP	-0.0871
RRIRQRPPRLPRPRPRPAIMPRP	-0.159
RRIRRRPPRLPRPRPRPCPYPRP	0.0825
RRIRERPPRLPRPRPRPYMAPRP	-0.137
RRIRCRPPRLPRPRPRPYIFPRP	-0.773
RRIRQRPPRLPRPRPRPHANPRP	-0.671
RRIRMRPPRLPRPRPRPKSGPRP	-0.101
RRIRYRPPRLPRPRPRPLYDPRP	-0.51
RRIRARPPRLPRPRPRPYLPPRP	0.0397
RRIRNRPPRLPRPRPRPFTMPRP	-0.149

Sequence	shrunken log2 fold change
RRIRWRPPRLPRPRPRPPCNPRP	0.0762
RRIRHRPPRLPRPRPRPQHYPRP	-0.483
RRIRSRPPRLPRPRPRPKKFPRP	-0.222
RRIRLRPPRLPRPRPRPFIHPRP	-0.807
RRIRQRPPRLPRPRPRPCNMPRP	0.00148
RRIRQRPPRLPRPRPRPKHSPRP	-0.0171
RRIRQRPPRLPRPRPRPSRGPRP	0.269
RRIRCRPPRLPRPRPRPNASPRP	0.0178
RRIRTRPPRLPRPRPRPNYIPRP	-0.74
RRIRQRPPRLPRPRPRPLFEPRP	0.0725
RRIRFRPPRLPRPRPRPKYVPRP	-0.594
RRIRMRPPRLPRPRPRPTMKPRP	0.482
RRIRCRPPRLPRPRPRPEALPRP	0.0749
RRIRARPPRLPRPRPRPGYRPRP	-0.107
RRIRIRPPRLPRPRPRPFSFPRP	-0.742
RRIRTRPPRLPRPRPRPKRHPRP	0.222
RRIRMRPPRLPRPRPRPKQCPRP	0.208
RRIRDRPPRLPRPRPRPIWKPRP	-0.00783
RRIRERPPRLPRPRPRPPTNPRP	0.0754
RRIRQRPPRLPRPRPRPPPMPRP	0.558
RRIRIRPPRLPRPRPRPWTIPRP	-0.0831
RRIRLRPPRLPRPRPRPKWSPRP	-0.171
RRIRARPPRLPRPRPRPTQYPRP	0.116
RRIRPRPPRLPRPRPRPHRCPRP	-0.299
RRIRPRPPRLPRPRPRPWHCPRP	-0.0956
